B1: GST-tagged recombinant Xenopus APE1, wild type [Xenopus laevis] / itself (parent)
chain: MPKRGKKEEVCAAEPQEDGNEPEVKKGKKGAGKAAKEPEPVVLYEDAPDNVTSADGKKYTLKISSWNVDGIRAWIKKQGLNWVREEDPHIMCLQEIKCAEKLLPPDVKDMPEYPHKYWACPDEKEGYSGVAMLCKDKPLNVTYGIGIEEHDKEGRVITAEFDSFFVIAAYIPNSSRGLVRLDYRQRWDVDFRAYLKGLDSKKPLILCGDLNVAHQEIDLKNPKTNKKTPGFTPQERQGFGELLAEGYLDSFRELYPDKPSAYTFWTYMMNARAKNVGWRLDYFVLSKALRPALCDCKIRSKVMGSDHCPITLLMAI

The variants in one assay derive from B1. In words: sucrose density gradient sedimentation, quantified immunoblot (self-association / oligomerization). Particulars: with itself; fraction #3 (low-mass peak, co-sediments with 75kD Conalbumin); n = 3; parent: 17; read off a plot.
For the variant MPKRGKKEEVCAAEPQEDGNEPEVAAGKKGAGAAAKEPEPVVLYEDAPDNVTSADGKKYTLKISSWNVDGIRAWIKKQGLNWVREEDPHIMCLQEIKCAEKLLPPDVKDMPEYPHKYWACPDEKEGYSGVAMLCKDKPLNVTYGIGIEEHDKEGRVITAEFDSFFVIAAYIPNSSRGLVRLDYRQRWDVDFRAYLKGLDSKKPLILCGDLNVAHQEIDLKNPKTNKKTPGFTPQERQGFGELLAEGYLDSFRELYPDKPSAYTFWTYMMNARAKNVGWRLDYFVLSKALRPALCDCKIRSKVMGSDHCPITLLMAI [chain 1 K25A K26A K33A], the percent of protein in gradient fraction was determined as 23%.

Staying with this assay, now noted: with itself; fraction #7 (high-mass oligomer peak of WT); n = 3; parent: 16; read off a plot.
As for MPKRGKKEEVCAAEPQEDGNEPEVAAGKKGAGAAAKEPEPVVLYEDAPDNVTSADGKKYTLKISSWNVDGIRAWIKKQGLNWVREEDPHIMCLQEIKCAEKLLPPDVKDMPEYPHKYWACPDEKEGYSGVAMLCKDKPLNVTYGIGIEEHDKEGRVITAEFDSFFVIAAYIPNSSRGLVRLDYRQRWDVDFRAYLKGLDSKKPLILCGDLNVAHQEIDLKNPKTNKKTPGFTPQERQGFGELLAEGYLDSFRELYPDKPSAYTFWTYMMNARAKNVGWRLDYFVLSKALRPALCDCKIRSKVMGSDHCPITLLMAI [chain 1 K25A K26A K33A], the percent of protein in gradient fraction came to 6%.

(Values after PMC11306256.)
